Patent EP3020822A1 (Janssen Biotech, Inc., dated 2016)

What was measured:
cynomolgus TLR3 = cynomolgus TLR3 (cynomolgus, UniProt A0A2K5WT39 32-912); assay: cell-based or functional assay
[1] = target: T1, human TLR3 extracellular domain (ECD) (human, UniProt O15455 24-703); assay: ELISA, human TLR3 ECD coated, goat anti-human Fc:HRP, luminescence
T1 construct: amino acids 1-703 of human TLR3; the structural model covers residues 30-687; also called huTLR3 ECD; TLR3 ECD

murine TLR3, full length = murine TLR3, full length (mouse, UniProt Q99MB1 26-905); assay: cell-based or functional assay

| Binder | binding result [1] | IC50, poly(I:C) ISRE luciferase reporter gene assay, HEK293T cells with full-length murine TLR3 (murine TLR3, full length) | further results |
| --- | --- | --- | --- |
| mAb 15EVQ (antibody, human IgG4 S228P, kappa, F234A L235A) heavy: not shown light: DIQMTQSPSSLSASVGDRVTITCRASQSIGLYLAWYQQKPGKAPKLLIYAASSLQSGVPSRFSGSGSGTDFTLTISSLQPEDFATYYCQQGNTLSYTFGQGTKVEIKRTVAAPSVFIFPPSDEQLKSGTASVVCLLNNFYPREAKVQWKVDNALQSGNSQESVTEQDSKDSTYSLSSTLTLSKADYEKHKVYACEVTHQGLSSPVTKSFNRGEC | – | – | IC50, cyno ISRE reporter gene assay (cynomolgus TLR3): 1.74 µg/mL; IC50, cyno NF-κB reporter gene assay (cynomolgus TLR3): 4.18 µg/mL |
| mAb 15-6 (antibody, human IgG4 S228P, kappa, F234A L235A, V domains shown, also called HC: V34I/G35S/E99Q) VH: EVQLVQSGAEVKKPGESLKISCKGSGYSFTNYWISWVRQMPGKGLEWMGFIDPSDSYTNYAPSFQGQVTISADKSISTAYLQWSSLKASDTAMYYCARQLYQGYMDTFDSWGQGTLVTVSS VL: DIQMTQSPSSLSASVGDRVTITCRASQSIGLYLAWYQQKPGKAPKLLIYAASSLQSGVPSRFSGSGSGTDFTLTISSLQPEDFATYYCQQGNTLSYTFGQGTKVEIKR | binds | – | – |
| mAb 15 (antibody, human IgG4 S228P, kappa) heavy: not shown light: DIQMTQSPSSLSASVGDRVTITCRASQSIGLYLAWYQQKPGKAPKLLIYAASSLQSGVPSRFSGSGSGTDFTLTISSLQPEDFATYYCQQGNTLSYTFGQGTKVEIKRTVAAPSVFIFPPSDEQLKSGTASVVCLLNNFYPREAKVQWKVDNALQSGNSQESVTEQDSKDSTYSLSSTLTLSKADYEKHKVYACEVTHQGLSSPVTKSFNRGEC | – | 22 µg/mL | – |
| mAb 15-5 (antibody, human IgG4 S228P, kappa, F234A L235A, V domains shown, also called HC: F50R/V34I/G35S/A61S/Q67H) VH: EVQLVQSGAEVKKPGESLKISCKGSGYSFTNYWISWVRQMPGKGLEWMGRIDPSDSYTNYSPSFQGHVTISADKSISTAYLQWSSLKASDTAMYYCARELYQGYMDTFDSWGQGTLVTVSS VL: DIQMTQSPSSLSASVGDRVTITCRASQSIGLYLAWYQQKPGKAPKLLIYAASSLQSGVPSRFSGSGSGTDFTLTISSLQPEDFATYYCQQGNTLSYTFGQGTKVEIKR | binds | – | – |
| mAb 15-9 (antibody, human IgG4 S228P, kappa, F234A L235A, V domains shown, also called HC: F50R/V34I/G35S/A61S/Q67H/E99Q) VH: EVQLVQSGAEVKKPGESLKISCKGSGYSFTNYWISWVRQMPGKGLEWMGRIDPSDSYTNYSPSFQGHVTISADKSISTAYLQWSSLKASDTAMYYCARQLYQGYMDTFDSWGQGTLVTVSS VL: DIQMTQSPSSLSASVGDRVTITCRASQSIGLYLAWYQQKPGKAPKLLIYAASSLQSGVPSRFSGSGSGTDFTLTISSLQPEDFATYYCQQGNTLSYTFGQGTKVEIKR | binds | – | – |
| mAb 5429 (antibody, mouse IgG1, kappa, V domains shown) VH: EVQLVASGGGLVKPGASLKLSCVASGFTFSDYWMAWVRQTPGKPMEYIGDIKSDGSKVNYAPSLKNRFTISRDNARTTLYLQMSNVRSEDTATYYCNRDIGPDWYFDFWGPGTMVTVSS VL: DIQMTQSPTSLSASLGETVTIECRASEDIYNGLAWYQQKPGKSPQLLIYDSNSLHTGVPSRFSGRGSGTQYSLRINSLQSEDVASYFCQQYYDYPLTFGSGTKLEIKR | – | 0.5 µg/mL | – |
| mAb c1811 (antibody, mouse IgG1, kappa, V domains shown) VH: EVQLVASGGGLVKPGASLKLSCVASGFTFSDYWMAWVRQTPGKPMEYIGDIKSDGSKVNYAPSLKNRFTISRDNARTTLYLQMSNVRSEDTATYYCNRDIGPDWYFDFWGPGTMVTVSS VL: DIQMTQSPTSLSASLGETVTIECRASEDIYNGLAWYQQKPGKSPQLLIYDSNSLHTGVPSRFSGRGSGTQYSLRINSLQSEDVASYFCQQYYDYPLTFGSGTKLEIKR | – | 0.7 µg/mL | – |
